This passage reports EC50, Kd and Response results from patent EP4755912A1 (Shandong Boan Biotechnology Co., Ltd., dated 2026).

Read-outs that look alike come from different tables or passages of the source.

For assay [1], the target named is T1, Human CD228 protein (human, UniProt P08582 20-708, limits assumed).
T1 construct: A His tag is named only for the panning and Western blot material (CD228-His); also called CD228 antigenic protein; C28
T1 sequence: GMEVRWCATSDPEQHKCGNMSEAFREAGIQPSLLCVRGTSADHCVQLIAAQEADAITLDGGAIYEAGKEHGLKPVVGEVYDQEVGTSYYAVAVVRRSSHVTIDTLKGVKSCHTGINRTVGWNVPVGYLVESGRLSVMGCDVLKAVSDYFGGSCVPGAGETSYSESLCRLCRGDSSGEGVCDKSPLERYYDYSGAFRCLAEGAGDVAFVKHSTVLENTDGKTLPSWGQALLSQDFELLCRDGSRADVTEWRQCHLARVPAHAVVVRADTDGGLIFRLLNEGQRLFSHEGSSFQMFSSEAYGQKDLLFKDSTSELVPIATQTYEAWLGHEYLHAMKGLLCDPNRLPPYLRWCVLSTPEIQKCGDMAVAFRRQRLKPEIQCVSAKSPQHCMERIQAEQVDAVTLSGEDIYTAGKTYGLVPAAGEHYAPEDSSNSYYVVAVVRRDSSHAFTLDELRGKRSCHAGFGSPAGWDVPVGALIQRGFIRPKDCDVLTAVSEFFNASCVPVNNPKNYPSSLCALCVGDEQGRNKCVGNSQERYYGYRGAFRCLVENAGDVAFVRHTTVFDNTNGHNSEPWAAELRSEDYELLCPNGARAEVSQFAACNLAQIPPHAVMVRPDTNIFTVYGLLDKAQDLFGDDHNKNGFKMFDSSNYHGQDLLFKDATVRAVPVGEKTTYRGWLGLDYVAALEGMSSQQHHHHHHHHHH
As to the kind of experiment: ELISA, plate coated with CD228 protein at 0.2 µg/mL.

For assay [2], the target named is T1, Human CD228 protein. The assay can be described thus: BLI, antibody on ProA sensor, CD228 protein in solution.
Assay [3] concerns the target T1, Human CD228 protein. The assay is described as above. The source holds these as a separate data set.

B1: R526 (antibody, V domains shown)
VH: QEQLEESGGRLVTPGTPLTLTCTVSGFSLSTYAINWIRQAPGKGLEWIGIIGGNGATYYTNWAKGRFTISKTSTTVDLKITSPTIEDTATYFCARGTNFWGPGTLVTVSS
VL: DPVLTQTASPVSAAVGGTITINCQASQSVYNNNQLSWFQQNPGQPPKRLIHSTSTLAPGVSSRFKGSGSGTQFTLTISDVQCDDAATYYCLGSYDCVSADCNAFGGGTEVVVKG
notes: Rabbit-derived clone, full-length antibody with rabbit constant regions
B1 registered an EC50 with Human CD228 protein [1] of 5.71 ng/mL. In the assay with Human CD228 protein [2], this molecule returned a Kd below 0.001 nM and a Response of 0.0251.

B2: R546 (antibody, V domains shown)
VH: QSLEESGGRLVKPDETLTLTCTVSGFSLSSYDMSWVRQAPGKGLQWIGAATAGGNTYHASWAKGRFTISKTSTTVDLKITSPTTEDTATYFCTRGLNIWGPGTLVTVSS
VL: DPMLTQTASPVSAAVGSTVTINCQASQSVYNNNNLNWYQQKPGQPPKLLIYAASTLASGVPSRFKGSGSGTQFTLTISDVQCDDAATYYCLGAYDCSSADCGAFGGGTELEILG
notes: Rabbit-derived clone from a phage library, made as a full-length antibody with rabbit constant regions in HEK293 cells; also called CD228-R546; self-made antibody R546
The molecule B2 returned a half-maximal effective concentration (EC50) in the assay with Human CD228 protein [1] of 1.52 ng/mL. In the assay with Human CD228 protein [2], this molecule came in with a Kd of 1.33 nM and a Response of 0.128. In addition, binding in the assay with Human CD228 protein [3] was characterised by a dissociation constant (Kd) of 1.33 nM.
